These results are taken from patent US20120058118A1 (Boehringer Ingelheim, published 2012).

Like-named read-outs stand apart in the source and are kept apart here. Ends that are not written are not given here. * marks the point of attachment. Biotin = O=C1N[C@H]2[C@H](CS[C@H]2CCCCC(=O)*)N1 A value given as a limit tells only on which side of the number the result lay.

The target in assay [1] is T1, aggregated A-beta(1-40) peptide (BAA) (human).
T1 construct: also called A-beta peptide aggregates
The experiment in a line: BAA ELISA.

Assay [2] deals with T2, human A-beta(1-40) peptide, monomeric (BAM) (human, biotin at the C-terminus in capture ELISA, SPR and TR-FRET; not biotinylated where coated directly (Example 7)).
T2 construct: synthetic peptide (Anaspec), TFA/HFIP treated to give monomer; also called monomeric A-beta
Put plainly: BAM ELISA.

For assay [3], the target named is T3, A-beta(1-16) peptide (human).
T3 construct: Bachem peptide captured on streptavidin chip; also called monomeric A-beta(1-16)
T3 peptide: DAEFRHDSGYEVHHQK-biotin
The experiment in a line: SPR on captured A-beta(1-16).
Description: (§1) After capturing, surfaces are blocked by injecting an excess (200 μg/ml) of d-biotin for 180 s at 5 μl/min. A reference surface is washed and blocked with d-biotin. HBS-EP+buffer is used as the running buffer and experiments are performed at 25° C. For off-rate screening, periplasmic extracts of VHHs are injected at a 10-fold dilution for 2 min at 45 μl/min and are allowed to dissociate for 10 min. […] Between different VHH samples, the surfaces are regenerated with regeneration buffer (50 mM NaOH) for 25 s at 45 μl/min followed by 10 s 6M GuHCl at 45 μl/min if regeneration is incomplete. […] Data are double referenced by subtraction of the curves on the reference channel and of a blank running buffer injection. Sensorgrams are evaluated by fitting a 1:1 dissociation model using the Biacore T100 Evaluation software v1.1.1.

The target of assay [4] is T2, human A-beta(1-40) peptide, monomeric …. Put plainly: TR-FRET competition, labelled ABII42D4.
For assay [5] the target is unchanged. The experiment in a line: TR-FRET competition and SPR.
The target is the same in assay [6]. The experiment in a line: TR-FRET competition, labelled ABII42D4. This is another data set of the same source.
The target is the same in assay [7]. Put plainly: ABII002 TR-FRET competition assay.
The target is the same in assay [8]. Put plainly: ABII050 TR-FRET competition assay.
Assay [9] has the same target. Put plainly: cell-based or functional assay.
In assay [10] the target is T4, A-beta(12-28) peptide (human).
T4 construct: Bachem peptide captured on streptavidin chip; also called monomeric A-beta(12-28); central region
T4 peptide: Biotin-VHHQKLVFFAEDVGSNK
The experiment in a line: SPR on captured A-beta(12-28).
Description: as §1

The target in assay [11] is T2, human A-beta(1-40) peptide, monomeric …. The experiment in a line: TR-FRET competition, labelled ABII60A10; extrapolated curve.
Assay [12] has the same target. The experiment in a line: 42D4 TR-FRET assay (labelled ABII42D4).
The target is the same in assay [13]. Put plainly: 60A10 TR-FRET assay (labelled ABII60A10).
Assay [14] shares this target. Put plainly: TR-FRET competition, labelled ABII60A10.
In assay [15] the target is T1, aggregated A-beta(1-40) peptide (BAA). Put plainly: BAA ELISA. The source holds these as a separate data set.
Assay [16] deals with T2, human A-beta(1-40) peptide, monomeric …. The experiment in a line: BAM ELISA. The source holds these as a separate data set.
The target is the same in assay [17]. The experiment in a line: TR-FRET competition.
Assay [18] shares this target. The experiment in a line: cell-based or functional assay. This is another data set of the same source.

B1: ABII42G10 (VHH)
VHH: EVQLVESGGGLVQAGGSLRLSCLFSGRTFSTNGVGWFRQVPGKEREFVSAINWSGSKTNYAEPVKGRFTISRDNAKNTAYLQMNSLKPEDTAVYYCAAYRTSISRYEYAYWGQGTQVTVSS
In the case of B1, the EC50 in [1] is 49.5 nM; in assay [2], 87 nM. Further, the binding result in assay [3] is given as “binds”. Also, in assay [4], the IC50 was greater than 1000 nM.

B2: ABII111B5_E109Q (VHH)
VHH: EVQLVESGGGLVLAGGSLRLSCVHSGPTFRTDTMGWFRQAPGKEREFVAAVTWNSGRINYADSVKGRFTVSRDNTRNAAYLQMSGLKDEDTAVYYCTAHRFVVGGNMVQDWRYWGQGTQVTVSS
notes: targeted mutant
Consider B2, for which, in assay [5], the “fold improvement of IC50 and KD over original ABII42D4” value was greater than 10 fold. The molecule also showed an IC50 in assay [6] of 3.7 nM.

B3: ABII111B5_M107E (VHH)
VHH: EVQLVESGGGLVLAGGSLRLSCVHSGPTFRTDTMGWFRQAPGKEREFVAAVTWNSGRINYADSVKGRFTVSRDNTRNAAYLQMSGLKDEDTAVYYCTAHRFVVGGNEVEDWRYWGQGTQVTVSS
notes: targeted mutant
As for B3, in assay [5], the “fold improvement of IC50 and KD over original ABII42D4” value was greater than 10 fold. In addition, the IC50 in [6] came out at 4.3 nM.

B4: ABII323-PEG40 (designed binder)
chain: VQLLESGGGLVQPGGSLRLSCAASGRTFNNYNMGWFRQAPGKGREFVAAVSRSGVSTYYADSVKGRFTISRDNSKNTVYLQMNSLRPEDTAVYYCAAAYRGTAINVRRSYSSWGQGTLVTVSSGGGGSGGGGSGGGGCGGGGSGGGGSGGGGSGGGGSEVQLLESGGGLVQPGGSLRLSCVHSGPTFRTDTMGWFRQAPGKGREFVAAVTWNSGRINYADSVKGRFTISRDNSKNTAYLQMNSLRPEDTAVYYCAAHRFVVGGNRVEDWRYWGQGTLVTVSS
modifications: PEG40 on the Cys at position 15 of the 35GS linker
notes: 059-35GSC-035
For B4, the IC50 in [7] was 0.18 nM; in assay [8], 0.2 nM.

B5: ABII42E10 (VHH)
VHH: EVQLVESGGGLVQPGGSLRLSCAASGLTFTLYTMGWFRQAPGKEREFVAAISASGGTTYYADSVKGRFALSRDNAKNTVFLQMNTLKPEDTAEYLCAAAFRGFAINTPTSYNYWGQGTQVTVSS
Regarding B5, the values for the EC50 in [1] and in assay [2] were 2.6 nM and 17.5 nM, respectively. Moreover, in assay [9], the “inhibition of peptide aggregation (ThT fluorescence), 28 µM VHH” value (from here on “inhibition of peptide aggregation”) amounted to 75%. Moreover, in assay [10], the binding result is listed as “binds”. The IC50 in assay [11] is 205 nM.

B6: ABII60H5 (VHH)
VHH: EVQLVESGGGLVQVGGSLRLSCAASGNIGSINAMGWYRQAPGKEREWVAIITNSGSVNYGPDSVKGRFTISGDNAKNRVYLQMDSLKPEDTAVYYCAAESWGRSPLKYLGQGTQVTVSS
In assay [2], B6 gave a 50% effective concentration (EC50) greater than 1000 nM. Further, the binding result in [3] is on record as “binds”.

B7: ABII60A10-35GS-ABII42D4 (designed binder)
chain: EVQLVESGGGLVQAGGSLRLSCAASGRTFNNYNMGWFRQAPGKEREFVAAVSRSGVSTYYADSVKGRFTISRDNAKNAVYLQMNSLKPEDTAIYYCGAAYRGTAINVRRSYDSWGQGTQVTVSSGGGGSGGGGSGGGGSGGGGSGGGGSGGGGSGGGGSEVQLVESGGGLVLAGGSLRLSCVHSGPTFSTDTMGWFRQAPGKEREFVAAVTWNSGRTNYADSVKGRFTVSRDNTRNAAYLQMSGLKDEDTAVYYCTAHRLVVGGTSVGDWRYWGQGTQVTVSS
notes: biparatopic VHH construct
Turning to B7, the results for the IC50 in assay [12] and in [13] were 0.055 nM and 0.091 nM, respectively.

B8: ABII14D4 (VHH)
VHH: EVQLVESGGGLVQAGGSLRLSCAASGRTFSTYNMAWFRHAPGKEREFVAAISRSGGSTYYVDSVKGRFTISRDNAKNTVYLQMNSLKPEDTAIYYCAAAPRGRSIVTTATYDYWGQGTQVTVSS
On to B8, for which the EC50 in assay [1] is 6.8 nM; in assay [2], 124 nM. In assay [9], the “inhibition of peptide aggregation” value is 78%. The binding result in [10] is given as “binds”. Further, in [14], the IC50 turned out to be 744 nM.

B9: ABII60D2 (VHH)
VHH: EVQLVESGGGSVQAGGSLRLSCAYSGSIFSIKTMGWYRQAPGKQRELVGRITSGDSTNYADSVKGRFTISRDKAKTTVYLQMNNLKPEDTAVYYCAARRPWPRSDVWGQGTQVTVSS
For B9, the EC50 in assay [2] is greater than 1000 nM. The binding result in [3] is given as “binds”.

B10: ABII5D2 (VHH)
VHH: EVQLVESGGGLVQAGGSLRLSCAASGRTFSSYAMGWVRQAPGKERELVATISQSGGLRSYADSVKGRFTISRDNAKNTVYLQMNSLTPGDTAVYYCAAQARATAWSPQRVDYWGQGTQVTVSS
As to B10, the EC50 in assay [1] was determined as 11.7 nM; in assay [2] it was 54.1 nM. The binding result in assay [3] is on record as “binds”. Besides, the IC50 in assay [4] is greater than 1000 nM.

B11: ABII42B10 (VHH)
VHH: EVQLVESGGGLVQRGGSLRLSCAASGRTFSNLNMGWFRQAPGKEREFQAAISRSGGTTYYADSVKGRFTISRDNAKSTVFLQMNSLKPEDTAVYYCAAASPGGPINYGRAYDSWGQGTQVTVSS
As to B11, the values for the EC50 in assay [1] and in assay [2] were 2.1 nM and 10.8 nM, respectively. Further, the “inhibition of peptide aggregation” value in assay [9] is 77%. Moreover, the binding result in assay [10] is “binds”. The molecule further came in with an IC50 in [14] of 85.6 nM.

B12: reference VHH 2G6 (VHH)
VHH: QVKLEESGGGLVQPGGSLRLSCAASGFTFSNYWMYWVRQAPGKGLEWVSTISPRAANTYYADSVKGRFTISRDNAKNTLYLQMNSLEPDDTALYYCAKSLRYRDRPQSSDFLFWRQGTQVTVSS
notes: from WO2006/40153
For B12, the EC50 was 7.2 nM in assay [1], 98.6 nM in assay [2], 7.2 nM in assay [15] and 98.6 nM in assay [16]. The IC50 in [17] and in [4] was greater than 1000 nM throughout. Also, the “Aggregation inhibition (% inhibition at 26 µM)” value in assay [18] stood at 29%.

B13: ABII42D4-35GS-ABII60A10 (designed binder)
chain: EVQLVESGGGLVLAGGSLRLSCVHSGPTFSTDTMGWFRQAPGKEREFVAAVTWNSGRTNYADSVKGRFTVSRDNTRNAAYLQMSGLKDEDTAVYYCTAHRLVVGGTSVGDWRYWGQGTQVTVSSGGGGSGGGGSGGGGSGGGGSGGGGSGGGGSGGGGSEVQLVESGGGLVQAGGSLRLSCAASGRTFNNYNMGWFRQAPGKEREFVAAVSRSGVSTYYADSVKGRFTISRDNAKNAVYLQMNSLKPEDTAIYYCGAAYRGTAINVRRSYDSWGQGTQVTVSS
notes: biparatopic VHH construct
As to B13, the IC50 in [12] turned out to be 0.05 nM; in assay [13], 0.084 nM.

B14: ABII059-27GS-ABII035-MSA (designed binder)
chain: EVQLLESGGGLVQPGGSLRLSCAASGRTFNNYNMGWFRQAPGKGREFVAAVSRSGVSTYYADSVKGRFTISRDNSKNTVYLQMNSLRPEDTAVYYCAAAYRGTAINVRRSYSSWGQGTLVTVSSGGGSGGGGSGGGGSGGGGSGGGGSGGGEVQLLESGGGLVQPGGSLRLSCVHSGPTFRTDTMGWFRQAPGKGREFVAAVTWNSGRINYADSVKGRFTISRDNSKNTAYLQMNSLRPEDTAVYYCAAHRFVVGGNRVEDWRYWGQGTLVTVSS
notes: built from the printed name; not shown: mouse serum albumin
For B14, the IC50 worked out at 0.19 nM in assay [7] and 0.18 nM in assay [8].

B15: ABII059-27GS-ABII035-MSA_D3 (designed binder)
chain: EVQLLESGGGLVQPGGSLRLSCAASGRTFNNYNMGWFRQAPGKGREFVAAVSRSGVSTYYADSVKGRFTISRDNSKNTVYLQMNSLRPEDTAVYYCAAAYRGTAINVRRSYSSWGQGTLVTVSSGGGSGGGGSGGGGSGGGGSGGGGSGGGEVQLLESGGGLVQPGGSLRLSCVHSGPTFRTDTMGWFRQAPGKGREFVAAVTWNSGRINYADSVKGRFTISRDNSKNTAYLQMNSLRPEDTAVYYCAAHRFVVGGNRVEDWRYWGQGTLVTVSS
notes: built from the printed name; not shown: domain III of mouse serum albumin
B15: the IC50 in assay [7] came out at 0.1 nM; in [8], 0.12 nM.
